T1: HCoV-OC43 spike antigens (bead panel) (HCoV-OC43, UniProt P36334 14-1297)
T1 sequence: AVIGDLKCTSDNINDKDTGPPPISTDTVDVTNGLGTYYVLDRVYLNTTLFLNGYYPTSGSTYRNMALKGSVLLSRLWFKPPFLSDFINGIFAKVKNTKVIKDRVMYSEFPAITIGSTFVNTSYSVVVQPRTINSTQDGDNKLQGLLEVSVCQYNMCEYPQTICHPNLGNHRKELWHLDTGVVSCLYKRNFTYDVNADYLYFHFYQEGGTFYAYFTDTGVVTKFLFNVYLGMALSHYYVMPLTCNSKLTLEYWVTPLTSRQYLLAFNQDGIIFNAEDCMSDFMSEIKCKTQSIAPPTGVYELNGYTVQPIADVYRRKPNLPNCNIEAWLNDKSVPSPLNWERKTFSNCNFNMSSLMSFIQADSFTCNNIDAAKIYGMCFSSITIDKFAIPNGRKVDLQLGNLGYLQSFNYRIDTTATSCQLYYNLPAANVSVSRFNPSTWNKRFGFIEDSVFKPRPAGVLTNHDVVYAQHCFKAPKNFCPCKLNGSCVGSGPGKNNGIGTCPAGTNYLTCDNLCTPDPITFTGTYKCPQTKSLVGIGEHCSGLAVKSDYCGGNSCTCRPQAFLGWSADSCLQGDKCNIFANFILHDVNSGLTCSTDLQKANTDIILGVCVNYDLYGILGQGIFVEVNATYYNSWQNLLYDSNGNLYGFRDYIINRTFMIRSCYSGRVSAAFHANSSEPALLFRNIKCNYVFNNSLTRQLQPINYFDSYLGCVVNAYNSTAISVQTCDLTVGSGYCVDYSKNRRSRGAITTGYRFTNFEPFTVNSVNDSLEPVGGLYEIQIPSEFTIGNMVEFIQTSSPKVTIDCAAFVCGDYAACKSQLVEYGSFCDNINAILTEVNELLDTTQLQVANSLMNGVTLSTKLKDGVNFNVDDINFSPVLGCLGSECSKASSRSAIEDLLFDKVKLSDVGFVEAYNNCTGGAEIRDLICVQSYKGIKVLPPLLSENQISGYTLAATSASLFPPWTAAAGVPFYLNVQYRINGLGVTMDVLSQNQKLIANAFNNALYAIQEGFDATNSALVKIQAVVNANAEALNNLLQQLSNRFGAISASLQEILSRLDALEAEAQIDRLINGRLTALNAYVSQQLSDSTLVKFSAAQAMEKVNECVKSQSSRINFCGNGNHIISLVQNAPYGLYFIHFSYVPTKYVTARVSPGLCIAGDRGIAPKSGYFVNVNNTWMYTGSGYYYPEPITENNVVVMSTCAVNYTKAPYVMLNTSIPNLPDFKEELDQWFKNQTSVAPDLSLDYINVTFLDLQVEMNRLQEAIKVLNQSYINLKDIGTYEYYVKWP

T2: HCoV-229E spike antigens (bead panel) (HCoV-229E, UniProt P15423 16-1115)
T2 sequence: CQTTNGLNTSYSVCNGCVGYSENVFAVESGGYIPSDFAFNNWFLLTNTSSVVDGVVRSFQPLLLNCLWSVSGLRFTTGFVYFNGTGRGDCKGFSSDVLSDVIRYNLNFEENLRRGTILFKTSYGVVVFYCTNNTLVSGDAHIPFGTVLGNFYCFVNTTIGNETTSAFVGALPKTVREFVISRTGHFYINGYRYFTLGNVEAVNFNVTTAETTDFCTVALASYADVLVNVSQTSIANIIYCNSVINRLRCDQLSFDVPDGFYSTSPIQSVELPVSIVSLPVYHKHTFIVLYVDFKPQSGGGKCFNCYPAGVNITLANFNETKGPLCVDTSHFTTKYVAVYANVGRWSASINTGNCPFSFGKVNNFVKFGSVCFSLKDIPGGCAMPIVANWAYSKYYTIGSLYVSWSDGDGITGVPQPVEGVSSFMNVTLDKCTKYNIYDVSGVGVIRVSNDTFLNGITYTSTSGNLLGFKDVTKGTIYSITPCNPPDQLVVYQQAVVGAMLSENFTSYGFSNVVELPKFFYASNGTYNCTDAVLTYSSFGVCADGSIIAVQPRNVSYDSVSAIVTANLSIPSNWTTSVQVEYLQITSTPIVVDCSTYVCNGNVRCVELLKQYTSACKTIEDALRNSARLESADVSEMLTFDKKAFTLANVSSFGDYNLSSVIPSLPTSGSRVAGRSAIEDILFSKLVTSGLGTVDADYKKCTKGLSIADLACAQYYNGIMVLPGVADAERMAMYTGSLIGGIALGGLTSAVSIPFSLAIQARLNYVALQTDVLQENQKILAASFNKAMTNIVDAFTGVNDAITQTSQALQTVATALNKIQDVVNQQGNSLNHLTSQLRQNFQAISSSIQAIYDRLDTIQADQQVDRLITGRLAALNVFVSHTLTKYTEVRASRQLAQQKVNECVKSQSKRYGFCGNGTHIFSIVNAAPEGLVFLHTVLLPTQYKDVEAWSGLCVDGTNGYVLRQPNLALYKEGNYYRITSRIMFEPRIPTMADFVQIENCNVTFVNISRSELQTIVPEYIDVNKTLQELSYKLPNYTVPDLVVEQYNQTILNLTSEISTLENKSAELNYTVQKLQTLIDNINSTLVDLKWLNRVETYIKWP


Legend:
[1] = target: SARS-CoV-2 S on pseudovirions (Wuhan Hu-1 / IL1/2020, last 18 amino acids removed) (SARS-CoV-2, UniProt P0DTC2 14-1273); assay: cell-based or functional assay
[2] = target: T1, HCoV-OC43 spike antigens (bead panel); assay: multiplex bead assay
[3] = target: T2, HCoV-229E spike antigens (bead panel); assay: multiplex bead assay

Row | Binder | Mean IC50, pSV neutralization [1] [µg/ml] | Mean IC80, pSV neutralization [1] [µg/ml] | binding result [2] | binding result [3]
1 | COV_2024 (antibody, V domains shown, human IgG1) VH: QVQLVQSGAEVRKPGSSVKVSCKASGGTFSTYAISWVRQAPGQGLEWMGGIIPMFGTTNYAQKFQGRVTITADESTRTAYMELSSLRSEDTAVYYCARDGGYDSWPDFDYWGQGTLVTVSS VL: EIVLTQSPATLSLSPGERATLSCRASQSISSFLAWYQQKPGQAPRLLIYDASNRATGIPARFSGSGSGTDFTLTVSSLEPEDFAVYYCHQRRNWPPIKTFGQGTKVDIK | 9.59 | ≥ 25 | no binding | 
2 | COV_1060 (antibody, V domains shown) VH: EVQLVQSGAEVKKPGESLKISCKSSGYTFTSFWIAWVRQLPGKGLEWMGIIYPGDSDTKYSPSFQGQVTISADKSISTAYLQWSSLKASDTAMYYCARLRGSCSNGVCYAYYYNAMDVWGPGTTVTVSS VL: QSALTQPASVSGSPGQSITISCTGTSSDIGRYNYVSWYQHHPGKAPKLMIYEVSNRPSGVSNRFSGSKSGNTASLTISGLQAEDEADYYCTSYTSGSTLGFGGGTKVTVLG | ≥ 25 | ≥ 25 |  | 
3 | COV_2056 (SEQ ID NO:432/437) (antibody, V domains shown) VH: EVQLVESGGGVVQPGRSLRLSCAASGFTFSIYGMHWVRQAPGKGLEWVALISYDGTNKYYADSVKGRFSISRDDSKNTLYLQMNSLRPEDTAVYYCAKVLMMGDSSGFSLGDAFDIWGQGTMVTVSS VL: DIQMTQSPSSVSASVGDRVTITCRASQGISNWLAWYQQKPGKAPKLLIYAASSLQSGVPSRFSGSVSGTDFTLTISSLQPEDFATYYCQQANSFPLTFGGGTKVDIK | 13.2 | ≥ 25 | no binding | 
4 | COV_3040 (antibody, V domains shown) VH: QVQLVESGGGLVQPGRSLRLSCTTSGFNFGDNSMSWVRQAPGKGLEWIGFISNKAHGGTTDYAASVKGRFTISRDDSKSIAYLQMNSLKAEDTAIYYCTKDSYGHFPSYGFDIWGQGTMVTVSS VL: DVVMTQTPLSLSVTPGQPASISCKSTQSLVHTDGKTYFYWFLQKPGQPPQLLIYDVSSRFSGVPDRFSGSGSATDFTLRISRVEAEDVGVYYCMHSINFPRTFGQGTKVEIT | ≥ 25 | ≥ 25 |  | 
5 | COV_3043 (antibody, V domains shown) VH: EVQVVESGGGLVQPGRSLRLSCTASGFNFGDNSMSWVRQAPGKGLEWVGFISNRDHSGTTDYAASVKGRFTISRDDSKSIAYLQMNSLKTEDTAIYYCIRDSYGHFPNYGFDVWGQGTMVTVSS VL: DVVMTQTPLSLSVTPGQPASISCKCSQSLIHSDGKTYQYWFLQRPGQPPQLLIYDVSNRVSGVPDRFSGSGSGTDFTLKISRVEAEDVGVYYCMHSINFPRTFGQGTKVEIT | ≥ 25 | ≥ 25 |  | 
6 | COV_1056 (antibody, V domains shown) VH: QVQLVESGGGVVQPGTSLRLSCEASGFTFSAYGMHWVRQAPGKGLEWVAISRNDGTTKYYADSVKGRLTISRDNSKNTLYLQMNSLTSEDTAVYYCANQCGGGCSVDSWGQGTLVTVSS VL: QAVVTQEASLTVSPGGTVTLTCGSSTGSVTSGHAPYWFQQKPGQAPRTLIFDTTHKHSWTPARFSGSLLGGKAALTLSGAQPEDEAEYYCLLSFGGAHVFGTGTKVTVLG | ≥ 25 | ≥ 25 |  | 
7 | COV_2151 (antibody, V domains shown, human IgG1) VH: QVQLQESGPRLVKPSETLSLTCTVSGGSISGSNYFWGWIRQPPGKGLEWIGTIYYGGSTYYNPSLKSRVTISVDTSENQFSLKLSSVTAADTAVYYCANLAWLRGYFDYWGQGTLVTVSS VL: NFMLTQPHSVSESPGKTVTISCTRSSGSIASNYVQWYQQRPGSAPTTVIYEDNQRPSGVPDRFSGSIDSSSNSVSLTISGLKTEDEADYYCQSYDSSNWVFGGGTKLTVL | 0.12 | 1.21 | no binding | 
8 | COV_1012 (antibody, V domains shown, human IgG1) VH: QVQLQESGPGLVRPSGTLSLTCAVSGGSISSSNWWSWVRQPPGKGLEWIGEIYRSGSTNYNPSLKSRVTISVAQSKNQFSLNLTSVTAADTAVYYCAKIIVGAPSDAFDIWGQGTMVTVSS VL: not shown | ≥ 25 | ≥ 25 |  | no binding
